# Molecular target: HaloTag-NLpep86 fusion proteins (internal fusions)
# Assay: luminescence complementation in transfected HeLa cells
substance,measurement,value
NLpoly11S,efficiency of structural complementation relative to N- or C-terminal NLpep86 fusions to HaloTag,1 to 40%

# — patent publication US20190352623A1
